Data on 2 substances can be found in patent US6660837.

Series [1] has as its target [γ-32P]GTP·GST-RhoA (human) (UniProt P61586). The experiment in a line: cell-based or functional assay.
In series [2] the test system is [Ser^46] PKN (39-53) peptide.

Sequence of [γ-32P]GTP·GST-RhoA (human) (P61586 whole entry): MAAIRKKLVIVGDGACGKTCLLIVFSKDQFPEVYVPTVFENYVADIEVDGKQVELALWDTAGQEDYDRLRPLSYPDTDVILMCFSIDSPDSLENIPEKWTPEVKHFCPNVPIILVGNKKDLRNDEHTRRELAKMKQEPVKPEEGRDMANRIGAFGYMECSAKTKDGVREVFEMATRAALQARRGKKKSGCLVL

Turning to “GST-PKN (N-terminal region of human PKN, amino acid sequence 1-538, fused to GST) (from UniProt Q16512 1-538)”, the half life of GTP bound to RhoA (endogenous GTPase activity) in series [1] is above 15 min.

PKN purified from rat testis cytosol: in series [2], the “Km (phosphorylation of the peptide by PKN)” value is given as “a Km of approximately 25 µM”.
